Values of other authors, collected in article PMC12564508.
pKd: −log10 of the molar value.

Target: NS4B (Dengue virus) (UniProt P27909)

**Q.** With NS4A (from UniProt P27909) as the substance, how does the pKd read?
**A.** The pKd was 7.30.
